T1: CD19 (UniProt P15391 20-556, limits assumed)
T1 sequence (looked up): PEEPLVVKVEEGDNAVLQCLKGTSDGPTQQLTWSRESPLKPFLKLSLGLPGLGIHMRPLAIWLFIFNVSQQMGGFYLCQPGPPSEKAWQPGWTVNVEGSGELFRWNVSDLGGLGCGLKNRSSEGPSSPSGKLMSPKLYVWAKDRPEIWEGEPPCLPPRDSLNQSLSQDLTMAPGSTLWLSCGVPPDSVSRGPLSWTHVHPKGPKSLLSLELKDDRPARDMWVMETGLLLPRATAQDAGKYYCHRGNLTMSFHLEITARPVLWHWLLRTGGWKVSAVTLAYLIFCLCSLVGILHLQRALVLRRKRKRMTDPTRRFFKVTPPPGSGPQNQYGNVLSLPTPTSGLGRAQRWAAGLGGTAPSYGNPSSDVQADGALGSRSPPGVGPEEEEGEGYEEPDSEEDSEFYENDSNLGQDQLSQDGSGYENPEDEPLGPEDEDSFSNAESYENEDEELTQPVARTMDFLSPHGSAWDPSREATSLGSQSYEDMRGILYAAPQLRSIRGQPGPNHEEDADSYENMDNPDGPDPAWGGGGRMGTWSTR

T2: CD19 (UniProt P15391 20-556)
T2 chain: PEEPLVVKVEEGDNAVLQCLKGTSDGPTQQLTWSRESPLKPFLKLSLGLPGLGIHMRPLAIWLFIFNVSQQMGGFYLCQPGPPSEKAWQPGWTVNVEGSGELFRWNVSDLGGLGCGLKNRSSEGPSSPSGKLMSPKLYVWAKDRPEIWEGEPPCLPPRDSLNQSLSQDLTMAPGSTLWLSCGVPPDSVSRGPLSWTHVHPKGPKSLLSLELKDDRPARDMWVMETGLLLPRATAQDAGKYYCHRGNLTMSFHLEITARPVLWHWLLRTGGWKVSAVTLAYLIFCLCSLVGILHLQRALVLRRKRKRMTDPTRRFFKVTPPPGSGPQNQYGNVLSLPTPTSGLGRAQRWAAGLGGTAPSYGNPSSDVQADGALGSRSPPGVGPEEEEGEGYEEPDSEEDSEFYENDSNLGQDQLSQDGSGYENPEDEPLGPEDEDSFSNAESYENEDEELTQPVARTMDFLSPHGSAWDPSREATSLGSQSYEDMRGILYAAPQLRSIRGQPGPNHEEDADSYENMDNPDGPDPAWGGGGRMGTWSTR


Experiments:
[1] = molecular target: T1, CD19; test: cell-based or functional assay
[2] = molecular target: T2, CD19; test: flow
[3] = molecular target: T2, CD19; test: flow cytometry cell binding; FIG. 5; WT switch (no PNE)

Binder | EC50 of cytotoxicity (LDH), sCAR-T cells + switch vs CD19+ RS4;11, Average of the repeat assays [1] [nM] | EC50 of cytotoxicity (LDH), sCAR-T cells + switch vs CD19+ RS4;11, assay DTR-5-15 (PBMC) [1] [nM] | EC50 of cytotoxicity (LDH), sCAR-T cells + switch vs CD19+ RS4;11, assay DTR-5-16 (CD4:CD8) [1] [nM] | EC50 of cytotoxicity (LDH), sCAR-T cells + switch vs CD19+ RS4;11, assay DTR-5-50 (PBMC) [1] [nM] | EC50 of cytotoxicity (LDH), sCAR-T cells + switch vs CD19+ RS4;11, assay DTR-5-51 (CD4:CD8) [1] [nM] | EC50 [2] [nM] | EC50 [3] [nM]
hFMCL2b/H4c(Q1E-V20L)-WT (antibody, V domains shown) VH: EVQLQESGPGLVKPSETLSLTCTVSGVSLPDYGVSWIRQPPGKGLEWLGVIWGSETTYYNSALKSRLTISKDNSKNQVSLKMSSLTAADTAVYYCAKHYYYGGSYAMDYWGQGTLVTVSS VL: DIQMTQSPSSLSASVGDRVTITCRASQDISKYLNWYQQKPGKAVKLLIYHTSRLHSGVPSRFSGSGSGTDYTLTISSLQPEDFATYFCQQGATLPYTFGQGTKLEIK | 0.013 | 0.00752 | 0.0153 | 0.0144 | 0.0148 | 1.18 | 
hFMCL2-LCNT/hFMCH4b (Fab, V domains shown) VH: QVQLQESGPGLVKPSETLSVTCTVSGVSLPDYGVSWIRQPPGKGLEWLGVIWGSETTYYNPSLKSRLTISKDNSKNQVSLKMSSLTAADTAVYYCAKHYYYGGSYAMDYWGQGTLVTVSS VL: DIQMTQSPSSLSASVGDRVTITCRASQDISKYLNWYQQKPGKAPKLLIYHTSRLHSGVPSRFSGSGSGTDYTLTISSLQPEDFATYYCQQGATLPYTFGQGTKLEIK | 0.0156 | 0.0214 | 0.00743 | 0.0187 | 0.0146 |  | 
hFMCL2b/H4b(Q1E)-WT (antibody, V domains shown) VH: EVQLQESGPGLVKPSETLSVTCTVSGVSLPDYGVSWIRQPPGKGLEWLGVIWGSETTYYNPSLKSRLTISKDNSKNQVSLKMSSLTAADTAVYYCAKHYYYGGSYAMDYWGQGTLVTVSS VL: DIQMTQSPSSLSASVGDRVTITCRASQDISKYLNWYQQKPGKAVKLLIYHTSRLHSGVPSRFSGSGSGTDYTLTISSLQPEDFATYFCQQGATLPYTFGQGTKLEIK | 0.0113 | 0.00715 | 0.0105 | 0.00697 | 0.0207 | 0.987 | 
hFMCL2b/H4b(Q1E-V20L)-WT (antibody, V domains shown) VH: EVQLQESGPGLVKPSETLSLTCTVSGVSLPDYGVSWIRQPPGKGLEWLGVIWGSETTYYNPSLKSRLTISKDNSKNQVSLKMSSLTAADTAVYYCAKHYYYGGSYAMDYWGQGTLVTVSS VL: DIQMTQSPSSLSASVGDRVTITCRASQDISKYLNWYQQKPGKAVKLLIYHTSRLHSGVPSRFSGSGSGTDYTLTISSLQPEDFATYFCQQGATLPYTFGQGTKLEIK | 0.00996 | 0.00963 | 0.0131 | 0.00748 | 0.0096 | 0.875 | 
hFMCL2/H2 WT (antibody, V domains shown) VH: QVQLQESGPGLVKPSETLSVTCTVSGVSLPDYGVSWIRQPPGKGLEWLGVIWGSETTYYNPSLKSRLTISKDTSKNQVSLKMSSLTAADTAVYYCARHYYYGGSYAMDYWGQGTLVTVSS VL: DIQMTQSPSSLSASVGDRVTITCRASQDISKYLNWYQQKPGKAPKLLIYHTSRLHSGVPSRFSGSGSGTDYTLTISSLQPEDFATYYCQQGATLPYTFGQGTKLEIK | 0.0843 | 0.141 | 0.079 | 0.0386 | 0.0785 |  | 45.6
hFMCL2b(V44L)/H4c(Q1E)-WT (antibody, V domains shown) VH: EVQLQESGPGLVKPSETLSVTCTVSGVSLPDYGVSWIRQPPGKGLEWLGVIWGSETTYYNSALKSRLTISKDNSKNQVSLKMSSLTAADTAVYYCAKHYYYGGSYAMDYWGQGTLVTVSS VL: DIQMTQSPSSLSASVGDRVTITCRASQDISKYLNWYQQKPGKALKLLIYHTSRLHSGVPSRFSGSGSGTDYTLTISSLQPEDFATYFCQQGATLPYTFGQGTKLEIK | 0.00745 | 0.00204 | 0.00845 | 0.00701 | 0.0123 | 1.72 | 
hFMCL2/H3 WT (antibody, V domains shown) VH: QVQLQESGPGLVKPSETLSVTCTVSGVSLPDYGVSWIRQPPGKGLEWLGVIWGSETTYYNPSLKSRLTISKDNSKNQVSLKMSSLTAADTAVYYCARHYYYGGSYAMDYWGQGTLVTVSS VL: DIQMTQSPSSLSASVGDRVTITCRASQDISKYLNWYQQKPGKAPKLLIYHTSRLHSGVPSRFSGSGSGTDYTLTISSLQPEDFATYYCQQGATLPYTFGQGTKLEIK | 0.0876 | 0.139 | 0.0771 | 0.0614 | 0.0726 |  | 23.9
hFMCL2b/H4c-x-(Q1E)-WT (antibody, V domains shown) VH: EVQLQESGPGLVKPSETLSLTCTVSGVSLPDYGVSWIRQPPGKGLEWIGVIWGSETTYYNSALKSRVTISKDNSKNQFSLKLSSVTAADTAVYYCAKHYYYGGSYAMDYWGQGTLVTVSS VL: DIQMTQSPSSLSASVGDRVTITCRASQDISKYLNWYQQKPGKAVKLLIYHTSRLHSGVPSRFSGSGSGTDYTLTISSLQPEDFATYFCQQGATLPYTFGQGTKLEIK | 0.0442 | 0.0283 | 0.0818 | 0.0151 | 0.0515 | 16.9 | 
hFMCL2b/H4b-x-(Q1E)-WT (antibody, V domains shown) VH: EVQLQESGPGLVKPSETLSLTCTVSGVSLPDYGVSWIRQPPGKGLEWIGVIWGSETTYYNPSLKSRVTISKDNSKNQFSLKLSSVTAADTAVYYCAKHYYYGGSYAMDYWGQGTLVTVSS VL: DIQMTQSPSSLSASVGDRVTITCRASQDISKYLNWYQQKPGKAVKLLIYHTSRLHSGVPSRFSGSGSGTDYTLTISSLQPEDFATYFCQQGATLPYTFGQGTKLEIK | 0.0538 | 0.0296 | 0.0776 | 0.0438 | 0.0639 | 1.87 | 
hFMCL2b/H4c(Q1E)-WT (antibody, V domains shown) VH: EVQLQESGPGLVKPSETLSVTCTVSGVSLPDYGVSWIRQPPGKGLEWLGVIWGSETTYYNSALKSRLTISKDNSKNQVSLKMSSLTAADTAVYYCAKHYYYGGSYAMDYWGQGTLVTVSS VL: DIQMTQSPSSLSASVGDRVTITCRASQDISKYLNWYQQKPGKAVKLLIYHTSRLHSGVPSRFSGSGSGTDYTLTISSLQPEDFATYFCQQGATLPYTFGQGTKLEIK | 0.00951 | 0.0071 | 0.00941 | 0.00825 | 0.0133 | 0.809 | 
hFMCL2b(A92N)-LCNT/hFMCH4c(Q1E) (Fab, V domains shown) VH: EVQLQESGPGLVKPSETLSVTCTVSGVSLPDYGVSWIRQPPGKGLEWLGVIWGSETTYYNSALKSRLTISKDNSKNQVSLKMSSLTAADTAVYYCAKHYYYGGSYAMDYWGQGTLVTVSS VL: DIQMTQSPSSLSASVGDRVTITCRASQDISKYLNWYQQKPGKAVKLLIYHTSRLHSGVPSRFSGSGSGTDYTLTISSLQPEDFATYFCQQGNTLPYTFGQGTKLEIK | 0.00992 | 0.00873 | 0.00919 | 0.00655 | 0.0152 |  | 
hFMCL2-LCNT/hFMCH4c (Fab, V domains shown) VH: QVQLQESGPGLVKPSETLSVTCTVSGVSLPDYGVSWIRQPPGKGLEWLGVIWGSETTYYNSALKSRLTISKDNSKNQVSLKMSSLTAADTAVYYCAKHYYYGGSYAMDYWGQGTLVTVSS VL: DIQMTQSPSSLSASVGDRVTITCRASQDISKYLNWYQQKPGKAPKLLIYHTSRLHSGVPSRFSGSGSGTDYTLTISSLQPEDFATYYCQQGATLPYTFGQGTKLEIK | 0.018 | 0.0166 | 0.016 | 0.0092 | 0.0301 |  | 

Reference: patent US20190359697A1 (Scripps Research, published 2019)
